Source: the DeepSol protein solubility set

assay: soluble on expression in E. coli; label from the status in PepcDB or PDB records

For “MAQTERRDAPELPDFSLLKRLARDQLIFLLEQLPGKKDLFIDADLMSPLDRIANVTILKQHEVDKLYKVELKPIVSSSDQLCFLIRPRIQTVKWISDLVNSDKVAGRFRRYKIIFTPQKFYACETVLEEQGVYGDVTTDEWNFYILPLDDDILSLELPEFFRDNFLEGDQRWVTTGGGALHLLQSVYGSFSKVYGIGRCAKMVYESWRELMEEGEQRTRQPEFAKVFLIDRDVDFVTPLCSQVVYEGLVDDIFRIKCSSVEFGPDVTSSDKSIKVMLNSQDKVFNEIRNEHFSNVFGFLSQKAKNLQTAYDKRRGMDIQQMKAFVADELKGLKQEHRLLSLHIGASESIMKKKTKQDFQELLKTEHSLLEGFEIRECIAYIEEHINRQVSMIDSLRLLCLLSITENGLLSKDYRSLKAQYLQSYGIEHLLTFANLRQLGLLEEQQTGETLTVMESKVGKLVNDKTAGKLTDAFSSLAKKSNFRALSKRLALVPKSGEEYDLRVPRDMAYIFSGAYIPLSCKLIEQVLERDGWTGLEEVTRMLNGQDFAVTGGSSSSEARNKSNGQRIILVMFLGGCTYSEISALRFLGKERGCRFIVLTTAITNSGRLLEALLDKHV”, which “soluble on expression in E. coli” value is on record?
The value was “soluble”.

For “MAQTIQLANHSEMTIIDNDLHVDVIGNQAHFSFSGLHNKTFTDREVLFEMPFLYEHEANVIGDGFQMLAQTSGTITHPIEIGRCPDNIPPYRVYSQHAPKRYYNYLVIEDSAGYTLFGFTTCRRFAGYFDIQQRNGQWILTAAIDGEHTQVADWEHNQ”, which “soluble on expression in E. coli” value is on record?
Its value is “not soluble”.

For “MARCSVCGAPAVAYIRYQRRYLCRDHYLEFVESKVERAIMRHRLVGKGDRVLAAVSGGKDSSTLLAVLSRLSRRIGFHVVALYIHLGIYEYSEKSREASIRLASQLDVPLIVFDLNEVLGAGIPELAKASKRPPCSVCGMVKRYVINAAAVELGVDAVALGHNADDIAVYNLKSFLNQDLEAISKLGVKTESIPGVAVGRVRPLYYVYEKESFLYSLLAGLPFLHEEC”, which “soluble on expression in E. coli” value is on record?
The value was “not soluble”.

With “MARDRNLFKMLVNRLLDRLARLPVGAELGSEGELAAELQASRTTVRAVLTHLAEAGLLSWEGRRKVVLRAPSPSDRFDEGETRPRQELVEEPFLAWVLQGDLPPGTLLHESDLARRLGVPVATVREFLIRFEPFGLIEKQPNRHWVLKGFTRAFAEEMFAVREMFERHALRGLLAATAPGGPLRADLESLRAEHEALSAGPEEELTAFPALDARFHRLLCRAAHNRFILDFSRTISIIVHFHYRWNKRDELRRNRAALNEHLAIVEAVLAGDAPRAAAALDAHLATAYRTLMTSVTWADA” as the sequence, how does the “soluble on expression in E. coli” value read?
Its value is “not soluble”.

For “MARFIAQLLLLASCVAAGQAVTAFLGERVTLTSYWRRVSLGPEIEVSWFKLGPGEEQVLIGRMHHDVIFIEWPFRGFFDIHRSANTFFLVVTAANISHDGNYLCRMKLGETEVTKQEHLSVVKPLTLSVHSERSQFPDFSVLTVTCTVNAFPHPHVQWLMPEGVEPAPTAANGGVMKEKDGSLSVAVDLSLPKPWHLPVTCVGKNDKEEAHGVYVSGYLSQ”, which “soluble on expression in E. coli” value is on record?
Its value is “soluble”.

With “MARKKTITKEQILTAAYEVVATEGFSKFTARNIANKMKCSTQPIYLEFKNMDDLRDALFQKIHKYLAKEVFPVKHTGNTIVDLALNYIHFATSESKLYRALYLEEYGGGKKMQEFSYHYFTEAVKADPEYANLNDVQIDSLHMGTWVVATGVAALMTSGIIHPSEEQIIHLMKDSIEAILERDEPIDIDL” as the sequence, how does the “soluble on expression in E. coli” value read?
Its value is “soluble”.

With “MARLARFWDSLENENLFDIVPQPPKSTVTRFHQQWLSSLANARDDELQTILYAKPLLPTPESIVQLPDEEYYGAKKISVGYR” as the sequence, how does the “soluble on expression in E. coli” value read?
Its value is “not soluble”.

Which “soluble on expression in E. coli” value does the source give for “MARNRLTESEMNEALRALDGWQKVDGREAITRSFKFKDFSTAFGFMAQAALYAEKLDHHPEWFNAYNRVDVTLATHSENGVTELDIKMARKMNAIAG” here?
The value was “soluble”.

Which “soluble on expression in E. coli” value does the source give for “MARPIFSQEIDPYSQEVPKDVAISPSSKFDIYVEAPGEAPFEEADSPAMEYDRELAHHYSHKQLDFLEACSEKPSSKCGNEVFKNMLDETVPITDECCRDILKIGKDCHLGLVKLIFATYEYKNKASKGIPKSKQTWNECVFRVGSKIGAPVSFEQ” here?
Its value is “soluble”.

With “MARPLKEGLDYFPLDVDADYDDKFQLIETLHGPTGFAIMIKLFMKIYSQNFYYKWTETEQILFAKRVNVDINTLKTVVNDCIKYDLFDNNLFSEFQILTSLGVQERYFTAIGRRKKQIVVLEYLLLDRPEVINLCPKIVFANINVVNDDINAEQEELMPALSAQTKGKESKVNESKAVVSEQEKLPEKIVKEKPTTTAYKFWEENVAITGLSEFDRELLKKLISLGGNELTVHAMKKAIELNRRRMKTVDTVLRGWLDNGVKTTAEADEQEKNWNGGAKKNARAEPAKQEIKISDQYNFGATRTD” as the sequence, how does the “soluble on expression in E. coli” value read?
The value was “not soluble”.

Which “soluble on expression in E. coli” value does the source give for “MARPNFRYTHYDLKELRAGTTLEISLSSVNNVRLMTGANFQRFTELLDFKYLGGVAKKSPIRIAVPETMHWHLIIDAEGHSGLAESSVKMLPAQPQATLTRKAS” here?
Its value is “soluble”.

With “MARSIDYGNLMHRAMRGLIQSVLEDVAEHGLPGAHHFFITFDTTHPDVAMADWLRARYPQEMTVVIQHWYENLSADDHGFSVTLNFGNQPEPLVIPFDAVRTFVDPSVEFGLRFETHEEDEEEETGGDEDPDGDDEPPRHDAQVVSLDKFRKAAALEHHHHHH” as the sequence, how does the “soluble on expression in E. coli” value read?
The value was “soluble”.

With “MASAIWYYTVLVAESVLGIVGLRLYEEPAYTVLDRPSDTIEIRRYAPRVAAEVDLERRGNADGQAFTLLFNYIAGANRGGSGTSERVAMTVPVDVARPAKIAMTAPVETATQDRMTRMRFFLPATFTADTAPKPSDERVQIVTVPEQTIATLRFSGTGRDLREREQQLIAALANTPWQPVGAPYGLFYDAPFTLPFVRRNEAAVEVAKRLEHHHHHH” as the sequence, how does the “soluble on expression in E. coli” value read?
The value was “not soluble”.

Which “soluble on expression in E. coli” value does the source give for “MASATLPRFDLMGWDKKDIADPYPVYRRYREAAPVHRTASGPGKPDTYYVFTYDDVVRVLSNRRLGRNARVASGDTDTAPVPIPTEHRALRTVVENWLVFLDPPHHTELRSLLTTEFSPSIVTGLRPRIAELASALLDRLRAQRRPDLVEGFAAPLPILVISALLGIPEEDHTWLRANAVALQEASTTRARDGRGYARAEAASQEFTRYFRREVDRRGGDDRDDLLTLLVRARDTGSPLSVDGIVGTCVHLLTAGHETTTNFLAKAVLTLRAHRDVLDELRTTPESTPAAVEELMRYDPPVQAVTRWAYEDIRLGDHDIPRGSRVVALLGSANRDPARFPDPDVLDVHRAAERQVGFGLGIHYCLGATLARAEAEIGLRALLDGIPALGRGAHEVEYADDMVFHGPTRLLLDLPDAALEHHHHHH” here?
The value was “soluble”.

For “MASETENIKYEESFIKNTRGMKLFTCKWVPAKQEPKALVFICHGYAMECSITMNSTARRLVKAGFAVYGIDYEGHGKSDGLSAYVPNFDHLVDDVSTHYTSICEKEENKGKMRFLLGESMGGAVLLLLHRKKPQFWDGAVLVAPMCKIAEEMKPSPLVISILAKLSGVIPSWKIIPGQDIIETAFKQPEIRKQVRENPYCYKGRPRLKTAYELLRVSTDLEKRLNEVSLPFIVLHGEDDKVTDKAVSRQLYEVASSSDKTFKLYPGMWHGLLYGETPENIETVFADIIGWLDKKVADESGGFESELKRKNDGIPLKG”, which “soluble on expression in E. coli” value is on record?
Its value is “soluble”.

For “MASFIPNLPSWAKHVDLKFRSALVLSQLFTKSWGHPDVIKQMAKYRRDVMSKRLVMDYVKELNPKIDIVKKYSKNGVTSYEGFFASPHATLFPNHMPGNVGRAHFRAYLPQKPGPVCIHLAGTGDHSYFRRHYLLVDDMLKDGVGSILIQNPFYGDRKPPNQFRSSLENVTDLFVMGAALIAECNHLFNWSETLGYGPFAISGVSMGGFMAQLAGSNSQRPISIVPILAWTTASPSYTEGAISPAVNYSLLQKQLEDPHYVDKIRRIPNQNWLDKMREMTARNGDSEAKNMMRILMDDFTSLEFYPTPIDTSLCHVFLADQDQYVLRNQGTPTYQQLWPNVTVEMMEGYGHVTAYLSKHDLWRRRITELLRRQQQKTI”, which “soluble on expression in E. coli” value is on record?
The value was “not soluble”.

With “MASGDITRYVITVTFHEDSLTEINELNNHLTRSGFLLTLTDDEGDVHELGTNTFGFVSAQSADEIKALVAGLAKSALDKDVDITVATWEAWSKNAQ” as the sequence, how does the “soluble on expression in E. coli” value read?
Its value is “not soluble”.

With “MASHMERDPQVAGLKVPPHSIEAEQSVLGGLMLDNERWDDVAERVVADDFYTRPHRHIFTEMARLQESGSPIDLITLAESLERQGQLDSVGGFAYLAELSKNTPSAANISAYADIVRER” as the sequence, how does the “soluble on expression in E. coli” value read?
The value was “soluble”.

For “MASIKEELISAAESESQVMQIVQAALEGIDMDALTSMTPGLPQTVRQTAINSLLSSKKLAIQQAPGGVLRLKVNTSEQIAGTEEEQVIYSLIEESKTRGIWIKELREGSGLNQLQLRKTLKSLETKKLIKTIKAVGTTRKCYILFSIEPDMSLTGGTFYSDQQLDSELINTLISVCGSYAASRRKHAIDENPNNIQMQREASYIRPQEIAQFITEKRVLNVPLSLEDLERILEVAVLDGTIERRADGKIRACPPRSSISPLVSVPCAICPVVEDCRPGYVISPQSCDYMKNWLADL”, which “soluble on expression in E. coli” value is on record?
The value was “not soluble”.

For “MASIKSYKLKNGQERWEYFVSNGRSNGTGRQQKIHKRGFRSHKEALKAAKIIEGQIASEEFVKENPQKMTISKFMNIWINEYKNNVKEGSRIVYRDAIRMYIDPYIGNYQLNKYKPADHQKFINSLFTNKELGKSKNGLSYNTVKIVNAALSNAFKKAQKLGYIKSNPTYFVEFPLDKVKEKTNKEKKLEFYTLEQENLFLDTARNFDDFMWYVFFLIIFDLGLRKGEVMALRWFNFDFRDNILTFDKQRLYRKEQPGQVILDDVKTDAGKRSLKMTNRVRNSVLELYSINYDLTSNVLPMTNSNQDFLFINHRGKNVGLPIRQRSVDTAWHRIIQKANLPKIRIHDGRHTNAARLRQAGVPLEDIKDMLGHKNVKTTEIYAHVSPEVKERAVNKLELYQMQHKKSGN”, which “soluble on expression in E. coli” value is on record?
The value was “not soluble”.

For “MASINWSEISTVLIDMDGTILDLHFDNHFWLEHLPARYSEKMSISLDAAKAKLKADYLSVVGTIKWYCLDYWAEQTQMPITELKREIQHLIQLRTDARDFLIALKASGRDVVLVTNAHPESLSLKIERTQLDQYFDVLYSTHDFGVTKESQLLWQRLQEKHGFDCDSTLFIDDSIEILQSAQQYGIKHLLAVANPDSKKTANVITDFPAITSFDLLTAQLSKELINSTSN”, which “soluble on expression in E. coli” value is on record?
Its value is “not soluble”.

Which “soluble on expression in E. coli” value does the source give for “MASKDKEINNTIDAIEDKNFKQVYKDSSYISKSDNGEVEMTERPIKIYNSLGVKDINIQDRKIKKVSKNKKRVDAQYKIKTNYGNIDRNVQFNFVKEDGMWKLDWDHSVIIPGMQKDQSIHIENLKSERGKILDRNNVELANTGTAYEIGIVPKNVSKKDYKAIAKELSISEDYIKQQMDQNWVQDDTFVPLKTVKKMDEYLSDFAKKFHLTTNETESRNYPLEKATSHLLGYVGPINSEELKQKEYKGYKDDAVIGKKGLEKLYDKKLQHEDGYRVTIVDDNSNTIAHTLIEKKKKDGKDIQLTIDAKVQKSIYNNMKNDYGSGTAIHPQTGELLALVSTPSYDVYPFMYGMSNEEYNKLTEDKKEPLLNKFQITTSPGSTQKILTAMIGLNNKTLDDKTSYKIDGKGWQKDKSWGGYNVTRYEVVNGNIDLKQAIESSDNIFFARVALELGSKKFEKGMKKLGVGEDIPSDYPFYNAQISNKNLDNEILLADSGYGQGEILINPVQILSIYSALENNGNINAPHLLKDTKNKVWKKNIISKENINLLTDGMQQVVNKTHKEDIYRSYANLIGKSGTAELKMKQGETGRQIGWFISYDKDNPNMMMAINVKDVQDKGMASYNAKISGKVYDELYENGNKKYDIDE” here?
Its value is “soluble”.
